Patent US20190248902A1 (published 2019)

T1: human ASGR-1 (wild type) (human, UniProt P07306 1-291)
T1 construct: also called wt ASGR1; huASGR-1
T1 sequence: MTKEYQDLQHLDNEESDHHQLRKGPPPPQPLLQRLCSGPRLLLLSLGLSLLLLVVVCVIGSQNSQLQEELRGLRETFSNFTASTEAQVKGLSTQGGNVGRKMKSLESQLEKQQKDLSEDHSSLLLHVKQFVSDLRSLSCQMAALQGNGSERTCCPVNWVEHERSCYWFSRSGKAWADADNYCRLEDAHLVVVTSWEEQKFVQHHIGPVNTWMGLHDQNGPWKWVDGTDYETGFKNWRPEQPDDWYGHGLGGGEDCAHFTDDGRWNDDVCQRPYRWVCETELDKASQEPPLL

T2: human ASGR-1 mutant construct H203 (human, UniProt P07306 1-291)
T2 construct: Arg/Glu scanning: non-arginine residues were changed to arginine; Transiently expressed on CHO-S cells
T2 sequence: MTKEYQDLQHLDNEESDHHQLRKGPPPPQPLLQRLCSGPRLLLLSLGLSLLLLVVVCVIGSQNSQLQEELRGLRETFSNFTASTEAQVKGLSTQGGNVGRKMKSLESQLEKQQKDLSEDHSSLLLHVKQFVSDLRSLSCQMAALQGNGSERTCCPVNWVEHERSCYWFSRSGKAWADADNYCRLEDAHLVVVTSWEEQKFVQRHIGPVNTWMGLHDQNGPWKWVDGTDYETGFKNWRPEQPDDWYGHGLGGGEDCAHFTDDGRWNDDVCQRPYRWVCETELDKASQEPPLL

B1: 75G3 (antibody, V domains shown)
VH: QVQLQQWGAGLLKPSETLSLTCAVYGGSLSGSYWSWIRQPPGKGLEWIGEINLSGSTNYNPSLKSRVTISVDTSKSQFSLTLRSVTAADTAVYYCARDYGGLDYWGQGTLVTVSS
VL: EIVLTQSPGTLSLSPGERATLSCRARQNVDSSYLAWYQQKPGQAPRLLIYGASSRATGIPDRFSGSGSGTDFTLTISRLEPEDFAVFYCQQYERSPWTFGQGTKVEIK
notes: mAb
B2: 218G4 (antibody, V domains shown)
VH: QVQLVESGGGVVQPGRSLRLSCAASGFTFSSYGLHWVRQAPGKGLEWVAVIWYDGSNKYYADSVKGRFTISRDNSKNTLYLQMNSLRVEDTAVYYCANWYYYYYGMDVWGQGTTVTVSS
VL: QSVLTQPPSVSAAPGQKVTISCSGSSSNIGNNYVSWYQQLPGTAPKLLLYDSNKRPSGIPARFSGSKSGTSATLGITGLQTGDEADYYCGTWDSSLNTVVFGGGTKLTVL
notes: mAb
B3: 193E7 (antibody, V domains shown)
VH: QVQLQQWGAGLLKPSETLSLTCAVYGGSFSGYFWTWIRQPPGKGLEWIGEINHSGSTNYNPSLKSRVTISVDTSKNQFSLKLSSVTAADTAVYYCARDYGADYWGQGTLVAVSA
VL: DIQMTQSPSSLSASVGDRVTITCRASQGIRNDLGWYQQKPGKAPKRLIYSASSLQRGVPSRFSGSGSGTEFTLTISSLQPEDFATYYCLQHKRYPLTFGGGTKVEIK
notes: mAb
B4: 194C10 (antibody, V domains shown)
VH: QVQLQQWGAGLLKPSETLSLTCAVSGGSFRYYYWSWIRQPPGKGLEWFGEINHSGSTNYNPSLKSRVTISIDTSKNQFSLKLRSVTAADTAVYYCARDYGAFDIWGQGTMVTVSS
VL: EIVLTQSPGTLSLSPGERATLSCRASPSVNSGYLAWYQQKPGQTPRLLIFGASSRATGIPDRFSASGSGADFTLTISRLEPEDFAVYFCQQYESSPWTFGQGTKVEIK
notes: mAb
B5: 176H4 (antibody, V domains shown)
VH: QVQLVESGGGVVQPGRSLRLSCAASGFTFSSYGMHWVRQAPGKGLEWVAIIWYDGSYKYYADSVKGRFTISRDNSKNTLYLQMSSLRAEDTAVYYCARDAHDFWSGYFAYWGQGALVTVSS
VL: DIVMTQTPLSLSVTPGQPASISCKSSQSLLHGDGKTYLYWYLQKPGQPPQLLIYEVSNRFSGVPDRFSGSGSGTDFTLKISRVEAEDVGIYYCMQSIQIPWTFGQGTRVEIK
notes: mAb
B6: 197G3 (antibody, V domains shown)
VH: QVQLVESGGGVVQPGRSLRLSCVASGFTFSSHGMHWVRQAPGKGLEWVAVIWYDGSNKNYADSVKGRFTISRDNSKNTLYLQMNSLRAEDTAVYYCARDPSVGYDGMDVWGQGTTVTVSS
VL: DIQMTQSPSSLSASVGDRVTITCRASQGIGNHLAWFQQKPGKAPKSLIYAASSLQSGVPSKFSGSRSGTDFSLTISSLQPEDFATYYCQQYSNYPVTFGPGTKVDIK
notes: mAb

Tests used:
human ASGR-1 (wild type) [1] = target: T1, human ASGR-1 (wild type); assay: FACS ratio: 65C12 geomean / this mAb geomean
Summary of the method: (§1)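 Value is the geomean of reference antibody 65C12 divided by that of the test mAb, correcting for construct expression. Binding was measured by flow cytometry on transiently transfected CHO-S cells after 1 h at 4 °C with antibody at 5 ug/ml. Detection used an anti-Fc Alexa 647 secondary, with 7-AAD to exclude dead cells.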

[2] = target: T2, human ASGR-1 mutant construct H203; assay: FACS ratio: 65C12 geomean / this mAb geomean
Summary of the method: as §1

human ASGR-1 (wild type) [3] = target: T1, human ASGR-1 (wild type); assay: flow cytometry, CHO-S:huASGR-1 cells, 11-point titration
Summary of the method: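 CHO-S cells stably expressing human ASGR-1 were multiplexed with dye-labelled parental cells and mouse ASGR-1 cells (30K cells/well). Antibodies were run as an 11-point 1:2 series from 100 nM for 30 min at 4°C, with CaCl2 (1 mM) washes, anti-human IgG-APC detection and PI live gating. EC50 from four-parameter fits of duplicate median signals.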

Binder	Expression Normalization to mAb 65C12 (human ASGR-1 (wild type) [1])	Expression Normalization to mAb 65C12 [2]	EC50 (human ASGR-1 (wild type) [3]) [nM]
B1	1.51	1.78	1
B2	4.59	3.25	2.2
B3	1.58	1.87	0.13
B4	1.99	1.95	0.56
B5	1.67	2.52	1
B6	4.21	7.35	0.25
